Reference: ChEMBL document CHEMBL1137660, “Molecular and biochemical characterization of the chromosome-encoded class A beta-lactamase BCL-1 from Bacillus clausii” (Antimicrob Agents Chemother, 2007)

What was measured:
[1] = substrate: CC1(C)S[C@@H]2[C@H](NC(=O)Cc3ccccc3)C(=O)N2[C@H]1C(=O)O; assay: (§1) Activity of Bacillus cereus beta-lactamase BcI
[2] = substrate: CC(=O)OCC1=C(C(=O)O)N2C(=O)[C@@H](NC(=O)CCC[C@@H](N)C(=O)O)[C@H]2SC1; assay: as §1
[3] = substrate: CC1(C)S[C@@H]2[C@H](NC(=O)[C@H](C(=O)O)c3ccsc3)C(=O)N2[C@H]1C(=O)O; conditions: Shouchella clausii; NR
[4] = substrate: CO/N=C(\C(=O)N[C@@H]1C(=O)N2C(C(=O)[O-])=C(C[n+]3cccc4c3CCC4)CS[C@H]12)c1csc(N)n1; conditions: Shouchella clausii; NR
[5] = substrate: CC1(C)S[C@@H]2[C@H](NC(=O)Cc3ccccc3)C(=O)N2[C@H]1C(=O)O; conditions: Shouchella clausii; NR
[6] = substrate: CC(=O)OCC1=C(C(=O)O)N2C(=O)[C@@H](NC(=O)Cc3cccs3)[C@H]2SC1; conditions: Shouchella clausii; NR
[7] = substrate: CO/N=C(\C(=O)N[C@@H]1C(=O)N2C(C(=O)[O-])=C(C[N+]3(C)CCCC3)CS[C@H]12)c1csc(N)n1; conditions: Shouchella clausii; NR
[8] = substrate: C[C@H]1[C@H](NC(=O)/C(=N\OC(C)(C)C(=O)O)c2csc(N)n2)C(=O)N1S(=O)(=O)O; conditions: Shouchella clausii; NR
[9] = substrate: O=C(Cc1cccs1)N[C@@H]1C(=O)N2C(C(=O)[O-])=C(C[n+]3ccccc3)CS[C@H]12; conditions: Shouchella clausii; NR
[10] = substrate: CCN1CCN(C(=O)N[C@@H](C(=O)N[C@@H]2C(=O)N3[C@@H]2SC(C)(C)[C@@H]3C(=O)O)c2ccccc2)C(=O)C1=O; conditions: Shouchella clausii; NR
[11] = substrate: CC(C)(O/N=C(\C(=O)N[C@@H]1C(=O)N2C(C(=O)[O-])=C(C[n+]3ccccc3)CS[C@H]12)c1csc(N)n1)C(=O)O; conditions: Shouchella clausii; NR
[12] = substrate: CO/N=C(\C(=O)N[C@@H]1C(=O)N2C(C(=O)O)=C(COC(N)=O)CS[C@H]12)c1ccco1; conditions: Shouchella clausii; NR
[13] = substrate: CO/N=C(\C(=O)N[C@@H]1C(=O)N2C(C(=O)O)=C(CSc3nc(=O)c(O)nn3C)CS[C@H]12)c1csc(N)n1; conditions: Shouchella clausii; NR
[14] = substrate: CO/N=C(\C(=O)N[C@@H]1C(=O)N2C(C(=O)O)=C(COC(C)=O)CS[C@H]12)c1csc(N)n1; conditions: Shouchella clausii; NR
[15] = substrate: CO[C@@]1(NC(=O)C(C(=O)O)c2ccc(O)cc2)C(=O)N2C(C(=O)O)=C(CSc3nnnn3C)CO[C@@H]21; conditions: Shouchella clausii; NR
[16] = substrate: CC1(C)S[C@@H]2[C@H](NC(=O)[C@H](N)c3ccc(O)cc3)C(=O)N2[C@H]1C(=O)O; conditions: Shouchella clausii; NR
[17] = substrate: CO[C@@]1(NC(=O)Cc2cccs2)C(=O)N2C(C(=O)O)=C(COC(N)=O)CS[C@@H]21; conditions: Shouchella clausii; NR
[18] = substrate: CC1(C)S[C@@H]2[C@H](NC(=O)[C@H](C(=O)O)c3ccsc3)C(=O)N2[C@H]1C(=O)O; conditions: Shouchella clausii; NR; remark: listed apart in the source
[19] = substrate: CO/N=C(\C(=O)N[C@@H]1C(=O)N2C(C(=O)[O-])=C(C[n+]3cccc4c3CCC4)CS[C@H]12)c1csc(N)n1; conditions: Shouchella clausii; NR; remark: listed apart in the source
[20] = substrate: CC1(C)S[C@@H]2[C@H](NC(=O)Cc3ccccc3)C(=O)N2[C@H]1C(=O)O; conditions: Shouchella clausii; NR; remark: listed apart in the source
[21] = substrate: CC(=O)OCC1=C(C(=O)O)N2C(=O)[C@@H](NC(=O)Cc3cccs3)[C@H]2SC1; conditions: Shouchella clausii; NR; remark: listed apart in the source
[22] = substrate: CO/N=C(\C(=O)N[C@@H]1C(=O)N2C(C(=O)[O-])=C(C[N+]3(C)CCCC3)CS[C@H]12)c1csc(N)n1; conditions: Shouchella clausii; NR; remark: listed apart in the source
[23] = substrate: O=C(Cc1cccs1)N[C@@H]1C(=O)N2C(C(=O)[O-])=C(C[n+]3ccccc3)CS[C@H]12; conditions: Shouchella clausii; NR; remark: listed apart in the source
[24] = substrate: CCN1CCN(C(=O)N[C@@H](C(=O)N[C@@H]2C(=O)N3[C@@H]2SC(C)(C)[C@@H]3C(=O)O)c2ccccc2)C(=O)C1=O; conditions: Shouchella clausii; NR; remark: listed apart in the source
[25] = substrate: CC(C)(O/N=C(\C(=O)N[C@@H]1C(=O)N2C(C(=O)[O-])=C(C[n+]3ccccc3)CS[C@H]12)c1csc(N)n1)C(=O)O; conditions: Shouchella clausii; NR; remark: listed apart in the source
[26] = substrate: CO/N=C(\C(=O)N[C@@H]1C(=O)N2C(C(=O)O)=C(COC(N)=O)CS[C@H]12)c1ccco1; conditions: Shouchella clausii; NR; remark: listed apart in the source
[27] = substrate: CO/N=C(\C(=O)N[C@@H]1C(=O)N2C(C(=O)O)=C(CSc3nc(=O)c(O)nn3C)CS[C@H]12)c1csc(N)n1; conditions: Shouchella clausii; NR; remark: listed apart in the source
[28] = substrate: CO/N=C(\C(=O)N[C@@H]1C(=O)N2C(C(=O)O)=C(COC(C)=O)CS[C@H]12)c1csc(N)n1; conditions: Shouchella clausii; NR; remark: listed apart in the source
[29] = substrate: CC1(C)S[C@@H]2[C@H](NC(=O)[C@H](N)c3ccc(O)cc3)C(=O)N2[C@H]1C(=O)O; conditions: Shouchella clausii; NR; remark: listed apart in the source
[30] = substrate: CO/N=C(\C(=O)N[C@@H]1C(=O)N2C(C(=O)[O-])=C(C[N+]3(C)CCCC3)CS[C@H]12)c1csc(N)n1; assay: (§2) Activity of Bacillus anthracis beta-lactamase Bla1
[31] = substrate: CC(C)(O/N=C(\C(=O)N[C@@H]1C(=O)N2C(C(=O)[O-])=C(C[n+]3ccccc3)CS[C@H]12)c1csc(N)n1)C(=O)O; assay: as §2
[32] = substrate: CO/N=C(\C(=O)N[C@@H]1C(=O)N2C(C(=O)O)=C(COC(C)=O)CS[C@H]12)c1csc(N)n1; assay: as §2
[33] = substrate: O=C(Cc1cccs1)N[C@@H]1C(=O)N2C(C(=O)[O-])=C(C[n+]3ccccc3)CS[C@H]12; assay: Ratio of Kcat to Km for Bacillus anthracis beta-lactamase Bla1

B1: Beta-lactamase 1 (Bacillus cereus), P00809 (protein)
chain: MILKNKRMLKIGICVGILGLSITSLEAFTGESLQVEAKEKTGQVKHKNQATHKEFSQLEKKFDARLGVYAIDTGTNQTISYRPNERFAFASTYKALAAGVLLQQNSIDSLNEVITYTKEDLVDYSPVTEKHVDTGMKLGEIAEAAVRSSDNTAGNILFNKIGGPKGYEKALRHMGDRITMSNRFETELNEAIPGDIRDTSTAKAIATNLKAFTVGNALPAEKRKILTEWMKGNATGDKLIRAGIPTDWVVGDKSGAGSYGTRNDIAVVWPPNSAPIIVLISSKDEKEAIYNDQLIAEATKVIVKGS
- Km [1]: 65 µM
- kcat [1]: 2200 s⁻¹
- kcat [2]: 0.2 s⁻¹

B2: Beta-lactamase (Bacillus clausii), A8RR46 (protein)
chain: MKRSFFMLKTKITSSILVGACLLIGCSNGNEQPVSNEPEPEESVETGEAVFKALEEEYAARLGVFALDTGTGQTVSYRSDERFTYASAHKPLAVAVLLQQKSIEELEQLITYSADDLVNYNPITENHVETGMTLRELSDASIRYSDNTAANFIFDEIGGPEGFKEGLRAIGDTVTEPERIEPELNHVEPGEIQDTSTPEALAKSLQEFALGEALPADKQELLIDWLIGNTTGDALIRAGVPEGWEVGDKTGAGSYGTRNDIAILWPPEKEPIILAVLSSKDEKDAEYDDELIAKATEEVINLLAQTE
- Km [3]: 6 µM
- kcat [3]: 5 s⁻¹
- Km [4]: 136 µM
- kcat [4]: 95 s⁻¹
- Km [5]: 12 µM
- kcat [5]: 97 s⁻¹
- Km [6]: 15 µM
- kcat [6]: 22 s⁻¹
- Km [7]: > 1000 µM
- kcat [7]: > 40 s⁻¹
- kcat [8]: < 0.3 s⁻¹
- Km [9]: 45 µM
- kcat [9]: 115 s⁻¹
- Km [10]: 21 µM
- kcat [10]: 38 s⁻¹
- Km [11]: 1000 µM
- kcat [11]: > 3.3 s⁻¹
- Km [12]: 105 µM
- kcat [12]: 15 s⁻¹
- Km [13]: 950 µM
- kcat [13]: 30 s⁻¹
- Km [14]: 790 µM
- kcat [14]: 22 s⁻¹
- kcat [15]: < 0.01 s⁻¹
- Km [16]: 22 µM
- kcat [16]: 85 s⁻¹
- Km [17]: < 0.01 µM
- kcat [17]: < 0.01 s⁻¹
- kcat/Km [18]: 1e+06 M⁻¹ s⁻¹
- kcat/Km [19]: 1e+06 M⁻¹ s⁻¹
- kcat/Km [20]: 8e+06 M⁻¹ s⁻¹
- kcat/Km [21]: 1.5e+06 M⁻¹ s⁻¹
- kcat/Km [22]: < 40000 M⁻¹ s⁻¹
- kcat/Km [23]: 2.5e+06 M⁻¹ s⁻¹
- kcat/Km [24]: 2e+06 M⁻¹ s⁻¹
- kcat/Km [25]: < 3000 M⁻¹ s⁻¹
- kcat/Km [26]: 100000 M⁻¹ s⁻¹
- kcat/Km [27]: 30000 M⁻¹ s⁻¹
- kcat/Km [28]: 30000 M⁻¹ s⁻¹
- kcat/Km [29]: 4e+06 M⁻¹ s⁻¹

B3: Beta-lactamase (Bacillus anthracis), Q93T42 (protein)
chain: MIVLKNKKMLKIGMCVGILGLSITSLVTFTGGALQVEAKEKTGQVKHKNQATHKEFSQLEKKFDARLGVYAIDTGTNQTIAYRPNERFAFASTYKALAAGVLLQQNSTKKLDEVITYTKEDLVDYSPVTEKHVDTGMTLGEIAEAAVRYSDNTAGNILFHKIGGPKGYEKALRQMGDRVTMSDRFETELNEAIPGDIRDTSTAKAIATNLKAFTAGNALPNHKRNILTKWMKGNATGDKLIRAGVPTNWVVADKSGAGSYGTRNDIAIVWPPNRAPIIIAILSSKDEKGATYDNQLIAEAAEVIVNAFR
- kcat [30]: < 0.2 s⁻¹
- kcat [31]: < 0.2 s⁻¹
- kcat [32]: < 0.2 s⁻¹
- kcat/Km [33]: 1.1e+06 M⁻¹ s⁻¹
